Measurements from patent publication KR20240010698A.

Assays:
[1] = target: FITC-labelled recombinant human HER2 (human) (UniProt P04626); test: nanoparticle flow cytometry of CDV incubated with FITC-HER2
[2] = target: FITC-labelled recombinant human HER2 (human) (UniProt P04626); test: flow cytometry, CDV on aldehyde/sulfate latex beads, FITC-HER2 titrated

percent of CDV with FITC fluorescence [1]: 44.5%
EC50 [2]: 0.94 µg/mL
Substance: scTTZ-gLAMP1 (trastuzumab scFv fused to glycosylated LAMP1) on cell-derived vesicles
